# Measured values from patent US20190031762A1, “POSTERIOR OCULAR FIBROSIS INHIBITION BY ANTAGONIZING PLACENTAL GROWTH FACTOR” (THROMBOGENICS NV, priority 2016, published 2019).
# T1: human PlGF (Homo sapiens, UniProt P49763)
# T1 sequence (P49763 19-131 limits assumed): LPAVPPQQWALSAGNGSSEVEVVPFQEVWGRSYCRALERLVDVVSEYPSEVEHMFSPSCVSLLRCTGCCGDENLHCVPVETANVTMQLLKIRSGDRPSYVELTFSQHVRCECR
# T2: murine PlGF (Mus musculus, UniProt P49764)
# T2 sequence (P49764 19-158): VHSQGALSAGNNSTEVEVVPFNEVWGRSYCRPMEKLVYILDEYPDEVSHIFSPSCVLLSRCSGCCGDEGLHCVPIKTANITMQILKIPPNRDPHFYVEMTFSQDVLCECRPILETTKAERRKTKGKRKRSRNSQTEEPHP
# Key:
# human PlGF = biological target: T1, human PlGF; assay: Binding of antibody to human PlGF
# mouse CNV model = assay: Posterior ocular collagen deposition (Col1a staining) in laser-induced CNV mouse model; assay type: in vivo; details: repeat experiment (FIG. 4), day 30, 3.1 μg/eye, compared to PBS
# Method: Mice (C57BL/6J, male, 8-10 weeks old) were anesthetized by intraperitoneal injection (135 μL) of a mixture of ketamine hydrochloride (Anesketin; […]) and medetomidine (Domitor; 1 mg/mL) and their pupils dilated with one eye drop (50 μL) Tropicamide (Tropicol™; 5 mg/mL; Thea, Research Papers Clermont-Ferrand, France). Three laser burns were placed in one eye with a green laser at the 9, 12, 3 o'clock positions around the optic disk using a slit lamp delivery system with a hand-held cover slide as a contact lens moisturized with Genteal Gel™ (Novartis, Vilvoorde, Belgium). Each spot was placed with a spot size of 100 μm, laser duration of a 50 milliseconds and a power of 320 mW. […] Finally, 300 μL atipamezole (Antisedan; 5 mg/mL) was injected intraperitoneally to reverse the effect of medetomidine and to reduce sedation time.
# At different time points after lasering, the compounds were administered intravitreally (IVT). The animal was anesthetized with a mixture of ketamine hydrochloride/medetomidine and the eye was treated with a drop of 0.4% oxybuprocaine (Unicaine; Thea Pharma). Intravitreal injections (1 μL) to one eye according to Tables 1 to 3 were performed by using an analytic science syringe (SGE Analytic Science) and glass capillaries with a diameter of 50-70 μm at the end, controlled by the UMP3I Microsyringe Injector and Micro4 Controller (all from World Precision Instruments Inc., Hertfordshire, UK). Finally, atipamezole (Antisedan) was injected intraperitoneally to reverse the effect of medetomidine and to reduce sedation time.
# To analyze the in vivo efficacy of the different compounds, the retina was removed from the dissected posterior segments. These posterior eye cups, which included retinal pigment epithelium (RPE), the choroid and the sclera were stored in phosphate buffered saline (PBS).
# To stain for the presence of collagen type 1 (Colla) protein in the laser spots at day 30 after laser, a rabbit anti-collagen antibody (Abcam, 1/270) was used overnight, diluted in Tris-buffered saline (TBS)-Triton 0.5% (v/v) at 4° C. The following day, the tissues were incubated for 2 hours with goat anti rabbit IgG Alexa Fluor 555 (Life Technologies; A-21428), diluted 1/100 in TBS-Triton 0.3% (v/v) at 4° C. The flat mounts of the posterior eye cups were mounted with Prolong Gold with 4′,6-diamidino-2-phenylindole (DAPI, Molecular Probes). Images were obtained using a microscope with a digital camera (Axiocam MrC5; Carl Zeiss, Oberkochen, Germany) at a magnification factor of 20. Morphometric analyses were performed using commercial software (Axiovision; Zeiss, Oberkochen, Germany). The density of collagen deposition was determined by calculating the Colla-positive area as a proportion of the total lesion.
# The mouse CNV model as described in Example 2.1 was used. At different time points after lasering, compounds were administered intraperitoneally (IP), or intravitreally (IVT), as indicated in Table 3.
# murine PlGF = biological target: T2, murine PlGF; assay: Binding of antibody to murine PlGF
molecule,measurement,setting,value
"16D3: murine anti-human PlGF-neutralizing antibody, CDRs SEQ ID NOs:1-6; hybridoma deposit LMBP 6399CB (antibody, V domains shown, humanized heavy chain amino acid sequence of neutralizing anti-PlGF antibody; humanized light chain amino acid sequence of neutralizing anti-PlGF antibody, hybridoma deposit LMBP 6399CB) VH: QVQLQQSGAELVKPGASVKISCKASGYTFTDYYINWVKLAPGQGLEWIGWIYPGSGNTKYNEKFKGKATLTIDTSSSTAYMQLSSLTSEDTAVYFCVRDSPFFDYWGQGTLLTVSS VL: DIVLTQSPDSLAVSLGERVTMNCKSSQSLLNSGMRKSFLAWYQQKPGQSPKLLIYWASTRESGVPDRFTGSGSGTDFTLTISSVQAEDVAVYYCKQSYHLFTFGSGTKLEIK","binding to human PlGF, in words",human PlGF,binds
same,"effect on collagen deposition / fibrosis, in words",mouse CNV model,significantly decreased collagen deposition
same,reduction in collagen deposition (Col1a),"mouse CNV model; IVT D0, 4, 10 and 20",34%
same,"affinity for murine PlGF relative to human PlGF, in words",murine PlGF,lower affinity
